This passage reports response results from publication PMC11734622.

The assay has as its target HA-tagged human GABARAP [human]. As to the kind of experiment: co-immunoprecipitation (anti-HA IP), immunoblot quantification. The following applies: 2 h, RAW 264.7 LRRK2 KO cells, read off a plot. (A western blot detects proteins with antibodies after separation by electrophoresis.)

As for “Halo-tagged human LRRK2 (WT) mutant W109A; L112A; W875A; I878A [human] / HA-tagged human GABARAP [human] chain 1 W109A, chain 1 L112A, chain 1 W875A, chain 1 I878A”, the response came to 0.4 A.U (DMSO, parent: 1) and 0.85 A.U (DMXAA 100 µg/mL, parent: 3.5).

Consider “Halo-tagged human LRRK2 (WT) mutant W875A; I878A [human] / HA-tagged human GABARAP [human] chain 1 W875A, chain 1 I878A”, for which the response amounted to 1.1 A.U (DMSO, parent: 1) and 1.7 A.U (DMXAA 100 µg/mL, parent: 3.5).

For “Halo-tagged human LRRK2 (WT) mutant W109A; L112A [human] / HA-tagged human GABARAP [human] chain 1 W109A, chain 1 L112A”, the response runs as follows: (DMSO, parent: 1) 0.25 A.U; (DMXAA 100 µg/mL, parent: 3.5) 0.9 A.U.
